This is an account of results in patent US20260035456A1 (SHANGHAI JEYOU PHARMACEUTICAL, published 2026).

Assay [1] deals with T1, biotin-labeled human ADM (human, not fully specified; biotin label (named human ADM-C-biotin in Example 1.4; position of the biotin not stated for the other lots)).
T1 construct: Synthetic peptide; also called human ADM-C-biotin; hADM-Biotin
T1 peptide: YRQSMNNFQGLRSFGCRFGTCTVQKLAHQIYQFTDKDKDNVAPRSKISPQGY
The assay can be described thus: BLI (Octet RED96e), biotinylated antigen on SA sensor, antibody 100 nM, 1:1 fit. As for the experimental part: (§1) The affinity of antibodies 2004hz00, 2004hz97, and 2004hz99 for biotin-labeled human and mouse ADM (human ADM Cat. No. 894757, mouse ADM Cat. No. 894758, synthesized by GLBiochem) was determined by adopting Octet RED96e (Fortebio). The antigens and the antibodies were all diluted with 1× PBST (1× PBS: Sangon, B548117-0500; 0.02% Tween 20: sigma, P1379), the concentration of the antibody used was 100 nM, and the concentration of the antigen used was 2 μg/mL. The candidate antibody sample was added to a 96-well plate (Greiner bio-one, 655209) at 200 μL/well, the software parameters were set, the temperature was 30° C., and the standard kinetic signal was collected at a frequency of 5.0 Hz; and an SA sensor (Fortebio, Cat. No. 18-5020) was pre-wetted with 1× PBST for 10 min and then tested on a machine.
(§2) The equilibrium dissociation constants (KD) of the antibodies were calculated by measuring the association rates (Kon) and the dissociation rates (Koff) of the antigen-antibody in a 1:1 binding manner by adopting the Data Analysis 12.0 software from Fortebio.
On the technique in general: In BLI a coated tip is dipped into the sample, and binding shifts an interference pattern.

Assay [2] addresses T2, biotin-labeled mouse ADM (mouse, not fully specified; biotin label (named mouse ADM-C-biotin in Example 1.4; position of the biotin not stated for the other lots)).
T2 construct: Synthetic peptide; also called mouse ADM-C-biotin; mADM-Biotin
T2 peptide: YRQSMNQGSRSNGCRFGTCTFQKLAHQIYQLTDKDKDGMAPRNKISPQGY
Described as above. As for the experimental part:
as §1, §2

The target of assay [3] is T1, biotin-labeled human ADM. In words: flow staining of yeast-displayed Fab at graded antigen concentrations. The source says: (§3) For the first round of screening products of JYYDL227, 46 monoclones were picked for sequencing, and finally, a yeast monoclonal colony with a unique sequence was obtained for EC₅₀ identification by flow staining.
(§4) According to the staining results of the clones (as shown in Table 6) in combination with the similarity of the sequences of the clones, the monoclones expressing antibodies Ab2004.Am31 (with amino acid sequences of variable regions set forth in SEQ ID NOs: 31 and 36), Ab2004.Am32 (with amino acid sequences of variable regions set forth in SEQ ID NOs: 31 and 37), Ab2004.Am33 (with amino acid sequences of variable regions set forth in SEQ ID NOs: 32 and 36), Ab2004.Am34 (with amino acid sequences of variable regions set forth in SEQ ID NOs: 33 and 38), Ab2004.Am35 (with amino acid sequences of variable regions set forth in SEQ ID NOs: 31 and 38), Ab2004.Am36 (with amino acid sequences of variable regions set forth in SEQ ID NOs: 31 and 39), Ab2004.Am37 (with amino acid sequences of variable regions set forth in SEQ ID NOs: 34 and 38), Ab2004.Am38 (with amino acid sequences of variable regions set forth in SEQ ID NOs: 34 and 40), Ab2004.Am39 (with amino acid sequences of variable regions set forth in SEQ ID NOs: 33 and 41), and Ab2004.Am40 (with amino acid sequences of variable regions set forth in SEQ ID NOs: 31 and 42) were finally selected. The amino acid sequences of the Chothia-numbered CDRs of the candidate antibodies are shown in Table 7, and the amino acid sequences of the light and heavy chain variable regions of the candidate antibodies are shown in Table 8.

For assay [4], the target named is T2, biotin-labeled mouse ADM. The description is as above.
Source text: as §3, §4

B1: humanized antibody 2004hz99 (antibody, human IgG1, kappa)
heavy: not shown
light: DVLMTQSPLSLPVTLGQPASISCRSSQSIIDSDGNTYLEWYQQRPGQSPRLLIYKVSNRFSGVPDRFSGSGSGTDFTLKISRVEAEDFGVYYCFQGSHFPYTFAQGTKLEIKRTVAAPSVFIFPPSDEQLKSGTASVVCLLNNFYPREAKVQWKVDNALQSGNSQESVTEQDSKDSTYSLSSTLTLSKADYEKHKVYACEVTHQGLSSPVTKSFNRGEC
notes: Human IgG1/kappa
As usually defined, the Kd is the free concentration of one partner at which half of the binding sites on the other are occupied at equilibrium, for simple one-to-one binding. For orientation: koff means the rate constant with which the complex falls apart. A high value points to fast dissociation. The term kon denotes a measure of how fast the partners come together. A higher kon goes with fast association. Turning to B1, in the assay with biotin-labeled human ADM [1], binding was put at a Kd of 0.429 nM, the Response value is 2.58, the off-rate constant (koff) is 0.000201 s⁻¹ and the kon came to 468000 M⁻¹ s⁻¹. In the assay with biotin-labeled mouse ADM [2], this molecule displayed a Kd of 0.418 nM, a Response value of 3.06, a koff of 0.000194 s⁻¹ and an association rate constant (kon) of 465000 M⁻¹ s⁻¹.

B2: Ab2004.Am32 (Fab displayed on yeast) (Fab, V domains shown)
VH: QVQLVQSGAEVKKPGASVKVSCKASGYTFTQYGIAWVRQAPGQGLEWMGWISAYQGNTNYAQKLQGRVTMTRDTSTSTAYMELRSLRSDDTAVYYCAREGRWGGSFNIWGQGTMVTVSS
VL: DIQMTQSPSSLSASVGDRVTITCRAAEGIGSYLAWYQQKPGKAPKLLIYDASNLETGVPSRFSGSGSGTDFTFTISSLQPEDIATYYCQQYDNLPLTFGGGTKVEIK
notes: Yeast monoclonal colony of library JYYDL227 (Fab display)
In general, EC50 refers to the concentration needed to bring the measured effect to its halfway point. As for B2, the EC50 with biotin-labeled human ADM [3] came to 0.41 nM; with biotin-labeled mouse ADM [4], 2.2 nM.

B3: Ab2004.Am01 (Fab displayed on yeast) (Fab, V domains shown)
VH: QVQLVQSGAEVKKPGASVKVSCKASGYTFTSYGISWVRQAPGQGLEWMGWISAYQGNTNYAQKLQGRVTMTRDTSTSTAYMELRSLRSDDTAVYYCAREGRWGGSFNIWGQGTMVTVSS
VL: DIQMTQSPSSLSASVGDRVTITCRASQGISSYLAWYQQKPGKAPKLLIYDASNLETGVPSRFSGSGSGTDFTFTISSLQPEDIATYYCQQYDNLPLTFGGGTKVEIK
Turning to B3, the EC50 came out at 4 nM in the assay with biotin-labeled human ADM [3] and 88.2 nM with biotin-labeled mouse ADM [4].

B4: Ab2004.Am33 (Fab displayed on yeast) (Fab, V domains shown)
VH: QVQLVQSGAEVKKPGASVKVSCKASGYTFTSYGISWVRQAPGQGLEWMGWISPYSGNTNYAQKLQGRVTMTRDTSTSTAYMELRSLRSDDTAVYYCAREGRWGGSFNIWGQGTMVTVSS
VL: DIQMTQSPSSLSASVGDRVTITCRASEGISEYLAWYQQKPGKAPKLLIYDASNLETGVPSRFSGSGSGTDFTFTISSLQPEDIATYYCQQYDNLPLTFGGGTKVEIK
notes: as for B2
As for B4, the values for the EC50 with biotin-labeled human ADM [3] and with biotin-labeled mouse ADM [4] were 0.79 nM and 15 nM, respectively.

B5: Ab2004.Am34 (Fab displayed on yeast) (Fab, V domains shown)
VH: QVQLVQSGAEVKKPGASVKVSCKASGYTFTHYGIAWVRQAPGQGLEWMGWISAYQGNTNYAQKLQGRVTMTRDTSTSTAYMELRSLRSDDTAVYYCAREGRWGGSFNIWGQGTMVTVSS
VL: DIQMTQSPSSLSASVGDRVTITCRASQGISSYLAWYQQKPGKAPKLLIYDVSILDAGVPSRFSGSGSGTDFTFTISSLQPEDIATYYCQQYDNLPLTFGGGTKVEIK
notes: as for B2
For B5, the EC50 in the assay with biotin-labeled human ADM [3] was determined as 1.06 nM; with biotin-labeled mouse ADM [4] it was 4.43 nM.

B6: Ab2004.Am38 (Fab displayed on yeast) (Fab, V domains shown)
VH: QVQLVQSGAEVKKPGASVKVSCKASGYTFTSYGISWVRQAPGQGLEWMGWISPYTGKTNYAQKLQGRVTMTRDTSTSTAYMELRSLRSDDTAVYYCAREGRWGGSFNIWGQGTMVTVSS
VL: DIQMTQSPSSLSASVGDRVTITCRASQGISSYLAWYQQKPGKAPKLLIYDTSDLDTGVPSRFSGSGSGTDFTFTISSLQPEDIATYYCQQYDNLPLTFGGGTKVEIK
notes: as for B2
As to B6, the results for the EC50 with biotin-labeled human ADM [3] and with biotin-labeled mouse ADM [4] were 0.74 nM and 14.3 nM, respectively.

B7: Ab2004.Am37 (Fab displayed on yeast) (Fab, V domains shown)
VH: QVQLVQSGAEVKKPGASVKVSCKASGYTFTSYGISWVRQAPGQGLEWMGWISPYTGKTNYAQKLQGRVTMTRDTSTSTAYMELRSLRSDDTAVYYCAREGRWGGSFNIWGQGTMVTVSS
VL: DIQMTQSPSSLSASVGDRVTITCRASQGISSYLAWYQQKPGKAPKLLIYDVSILDAGVPSRFSGSGSGTDFTFTISSLQPEDIATYYCQQYDNLPLTFGGGTKVEIK
notes: as for B2
On to B7, for which the EC50 with biotin-labeled human ADM [3] is 0.88 nM; with biotin-labeled mouse ADM [4], 6.74 nM.

B8: Ab2004.Am35 (Fab displayed on yeast) (Fab, V domains shown)
VH: QVQLVQSGAEVKKPGASVKVSCKASGYTFTQYGIAWVRQAPGQGLEWMGWISAYQGNTNYAQKLQGRVTMTRDTSTSTAYMELRSLRSDDTAVYYCAREGRWGGSFNIWGQGTMVTVSS
VL: DIQMTQSPSSLSASVGDRVTITCRASQGISSYLAWYQQKPGKAPKLLIYDVSILDAGVPSRFSGSGSGTDFTFTISSLQPEDIATYYCQQYDNLPLTFGGGTKVEIK
notes: as for B2
On to B8, for which the EC50 amounted to 1.47 nM in the assay with biotin-labeled human ADM [3] and 2.26 nM in the assay with biotin-labeled mouse ADM [4].

B9: Ab2004.Am31 (Fab displayed on yeast) (Fab, V domains shown)
VH: QVQLVQSGAEVKKPGASVKVSCKASGYTFTQYGIAWVRQAPGQGLEWMGWISAYQGNTNYAQKLQGRVTMTRDTSTSTAYMELRSLRSDDTAVYYCAREGRWGGSFNIWGQGTMVTVSS
VL: DIQMTQSPSSLSASVGDRVTITCRASEGISEYLAWYQQKPGKAPKLLIYDASNLETGVPSRFSGSGSGTDFTFTISSLQPEDIATYYCQQYDNLPLTFGGGTKVEIK
notes: as for B2
In the case of B9, the EC50 with biotin-labeled human ADM [3] was found to be 0.45 nM; with biotin-labeled mouse ADM [4], 1.66 nM.

B10: Ab2004.Am36 (Fab displayed on yeast) (Fab, V domains shown)
VH: QVQLVQSGAEVKKPGASVKVSCKASGYTFTQYGIAWVRQAPGQGLEWMGWISAYQGNTNYAQKLQGRVTMTRDTSTSTAYMELRSLRSDDTAVYYCAREGRWGGSFNIWGQGTMVTVSS
VL: DIQMTQSPSSLSASVGDRVTITCRASQGISSYLAWYQQKPGKAPKLLIYDASNVDTGVPSRFSGSGSGTDFTFTISSLQPEDIATYYCQQYDNLPLTFGGGTKVEIK
notes: as for B2
In the case of B10, the concentration giving a half-maximal response (EC50) with biotin-labeled human ADM [3] was determined as 1.73 nM; in the assay with biotin-labeled mouse ADM [4], 2.67 nM.

B11: Ab2004.Am39 (Fab displayed on yeast) (Fab, V domains shown)
VH: QVQLVQSGAEVKKPGASVKVSCKASGYTFTHYGIAWVRQAPGQGLEWMGWISAYQGNTNYAQKLQGRVTMTRDTSTSTAYMELRSLRSDDTAVYYCAREGRWGGSFNIWGQGTMVTVSS
VL: DIQMTQSPSSLSASVGDRVTITCRASQGISSYLAWYQQKPGKAPKLLIYDASNLETGVPSRFSGSGSGTDFTFTISSLQPEDIATYYCQQYDDLDLTFGGGTKVEIK
notes: as for B2
On to B11, for which the EC50 came out at 0.86 nM in the assay with biotin-labeled human ADM [3] and 4.23 nM in the assay with biotin-labeled mouse ADM [4].

B12: Ab2004.Am40 (Fab displayed on yeast) (Fab, V domains shown)
VH: QVQLVQSGAEVKKPGASVKVSCKASGYTFTQYGIAWVRQAPGQGLEWMGWISAYQGNTNYAQKLQGRVTMTRDTSTSTAYMELRSLRSDDTAVYYCAREGRWGGSFNIWGQGTMVTVSS
VL: DIQMTQSPSSLSASVGDRVTITCRASQGISSYLAWYQQKPGKAPKLLIYDASNLETGVPSRFSGSGSGTDFTFTISSLQPEDIATYYCQQYDDLPLSFGGGTKVEIK
notes: as for B2
As to B12, the EC50 stood at 0.5 nM with biotin-labeled human ADM [3] and 2.5 nM in the assay with biotin-labeled mouse ADM [4].
